Source: article PMC11695602 (Communications Biology, 2025)

Columns and labels:
[1] = biological target: recombinant human p53 (p53-FLAG) (human, UniProt P04637 1-393); assay: co-IP
[2] = biological target: T1, recombinant human CTNNA3 (CTNNA3-FLAG) (human, UniProt Q9UI47-1 1-895); assay: co-IP
T1 sequence (looked up): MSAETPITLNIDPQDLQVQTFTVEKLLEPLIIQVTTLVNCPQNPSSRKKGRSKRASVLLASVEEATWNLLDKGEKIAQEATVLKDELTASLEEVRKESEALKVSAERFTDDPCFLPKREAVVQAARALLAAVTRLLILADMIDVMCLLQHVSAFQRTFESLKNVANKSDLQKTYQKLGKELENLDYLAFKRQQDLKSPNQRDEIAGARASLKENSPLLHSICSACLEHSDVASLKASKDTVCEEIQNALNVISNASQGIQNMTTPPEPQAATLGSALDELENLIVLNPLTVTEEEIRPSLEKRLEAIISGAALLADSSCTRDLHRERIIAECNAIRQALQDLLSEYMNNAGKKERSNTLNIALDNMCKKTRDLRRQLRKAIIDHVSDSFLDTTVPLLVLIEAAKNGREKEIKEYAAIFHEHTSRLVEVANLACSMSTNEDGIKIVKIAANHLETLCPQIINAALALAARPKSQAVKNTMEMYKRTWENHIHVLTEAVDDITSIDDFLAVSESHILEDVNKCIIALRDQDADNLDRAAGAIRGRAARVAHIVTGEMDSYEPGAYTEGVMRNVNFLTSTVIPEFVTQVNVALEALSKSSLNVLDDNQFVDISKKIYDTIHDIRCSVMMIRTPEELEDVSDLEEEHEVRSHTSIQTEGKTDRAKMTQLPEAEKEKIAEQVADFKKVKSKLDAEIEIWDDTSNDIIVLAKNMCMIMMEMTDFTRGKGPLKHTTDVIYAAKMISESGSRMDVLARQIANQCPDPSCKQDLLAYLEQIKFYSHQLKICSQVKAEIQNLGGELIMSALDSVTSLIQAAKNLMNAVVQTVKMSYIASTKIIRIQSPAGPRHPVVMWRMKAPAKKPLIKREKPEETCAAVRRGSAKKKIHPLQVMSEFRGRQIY

[3] = biological target: T1, recombinant human CTNNA3 (CTNNA3-FLAG); assay: BLI
[4] = biological target: T1, recombinant human CTNNA3 (CTNNA3-FLAG); assay: MST

recombinant human p53 (p53-FLAG), sequence (P04637 whole entry): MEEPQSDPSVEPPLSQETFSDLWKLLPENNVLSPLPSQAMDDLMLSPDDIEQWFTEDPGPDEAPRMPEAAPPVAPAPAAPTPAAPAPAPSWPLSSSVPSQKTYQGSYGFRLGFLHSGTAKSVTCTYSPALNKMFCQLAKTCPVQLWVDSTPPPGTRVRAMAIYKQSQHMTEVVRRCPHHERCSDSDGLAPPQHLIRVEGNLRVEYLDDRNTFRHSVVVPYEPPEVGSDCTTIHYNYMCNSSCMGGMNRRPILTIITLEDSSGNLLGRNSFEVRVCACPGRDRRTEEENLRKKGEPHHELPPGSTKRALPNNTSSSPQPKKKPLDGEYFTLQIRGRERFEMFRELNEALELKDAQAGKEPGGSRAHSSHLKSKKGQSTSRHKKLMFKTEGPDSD

B1: recombinant human FLAG-tagged fortilin (fortilin-FLAG) (natural protein, UniProt P13693 1-172, looked up)
chain: MIIYRDLISHDEMFSDIYKIREIADGLCLEVEGKMVSRTEGNIDDSLIGGNASAEGPEGEGTESTVITGVDIVMNHHLQETSFTKEAYKKYIKDYMKSIKGKLEEQRPERVKPFMTGAAEQIKHILANFKNYQFFIGENMNPDGMVALLDYREDGVTPYMIFFKDGLEMEKC
binding result [1]: binds | binding result [2]: binds

B2: recombinant human fortilin (rh-fortilin), Strep-tagged, biotinylated (natural protein, UniProt P13693 1-172, looked up)
chain: B1 chain
modifications: biotin
Kd [3]: 36.1 nM

B3: recombinant human fortilin (rh-fortilin), Strep-tagged, red-maleimide-labelled (natural protein, UniProt P13693 1-172, looked up)
chain: B1 chain
modifications: red-maleimide fluorescent dye (Monolith red-maleimide 2nd generation protein labeling kit)
Kd [4]: 33.2 nM
